Measurements published in paper PMC4742118, “The ON:OFF switch, σ1R-HINT1 protein, controls GPCR-NMDA receptor cross-regulation: Implications in neurological disorders” (Oncotarget, 2015).

B1: recombinant HINT1 protein (natural protein, mouse, UniProt P70349 1-126, looked up)
chain: MADEIAKAQVAQPGGDTIFGKIIRKEIPAKIIFEDDRCLAFHDISPQAPTHFLVIPKKHISQISVADDDDESLLGHLMIVGKKCAADLGLKRGYRMVVNEGADGGQSVYHIHLHVLGGRQMNWPPG
notes: HINT1, coding region of NM_008248, amplified from mouse brain RNA; also called PKCI/HINT1; source: E. coli BL21 (KRX), purified (GSTrap FF; when necessary cleaved with ProTEV and electroeluted)

Assays:
Settings in all cases: both partners purified
GST-σ1R = biological target: T1, GST-σ1R (murine, UniProt O55242 1-223); assay: pull-down; HINT1 protomer 200 nM with GST fusion protein 100 nM in 50 mM Tris-HCl pH 7.4, 2.5 mM CaCl2, 0.2% CHAPS, 30 min RT; captured on glutathione Sepharose 4B; Western blot
T1 construct: murine full-length (1-223) σ1R, GenBank AF004927, cloned downstream of GST and a TEV protease site; also called GST-tagged σ1 receptor; source: E. coli BL21 (KRX), purified (GSTrap FF); not shown: GST, N-terminal, kept
T1 sequence (O55242 whole entry, the tested form may be a part): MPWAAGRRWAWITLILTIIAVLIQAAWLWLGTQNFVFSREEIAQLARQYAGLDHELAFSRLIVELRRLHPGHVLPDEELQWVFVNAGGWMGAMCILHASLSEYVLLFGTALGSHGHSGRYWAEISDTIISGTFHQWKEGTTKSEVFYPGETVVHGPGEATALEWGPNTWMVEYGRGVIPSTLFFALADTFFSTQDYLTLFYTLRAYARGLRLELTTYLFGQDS

recombinant σ1R = biological target: T2, recombinant σ1R (murine, UniProt O55242 1-223); assay: pull-down; bait (GST-NR1 C0-C1-C2 or GST-MOR) covalently attached to NHS-activated Sepharose; σ1R 100 nM in 50 mM Tris-HCl pH 7.4, 0.2% CHAPS, 30 min RT; 0 mM CaCl2; Western blot
T2 construct: murine full-length (1-223) σ1R, GenBank AF004927; Used as prey; also called sigma 1 receptor; source: E. coli BL21 (KRX), purified (GSTrap FF; when necessary cleaved with ProTEV and electroeluted)
T2 sequence (O55242 whole entry): as the sequence (O55242 whole entry, the tested form may be a part) above

[1] = biological target: B1; assay: pull-down; displacement assay: HINT1 200 nM preincubated with agarose-NR1 or agarose-MOR in 50 mM Tris-HCl pH 7.5, 2.5 mM CaCl2, 0.2% CHAPS at RT; free HINT1 removed; σ1R added (100 nM, 300 nM or 1 uM on NR1; 300 nM on MOR); Western blot of bound HINT1 and σ1R

binding result (GST-σ1R)	binding result (recombinant σ1R)	binding result [1]	Binder
binds	–	–	B1
–	binds	binds	GST-MOR (domain or fragment, mus musculus, UniProt P42866 286-398, looked up, C-terminal region of mus musculus MOR1 (AB047546), residues 286-398; the methods speak of MOR Ct; also called GST-tagged MOR; MOR Ct; source: E. coli BL21 (KRX), purified (GSTrap FF); not shown: GST, N-terminal, kept) VAVFIVCWTPIHIYVIIKALITIPETTFQTVSWHFCIALGYTNSCLNPVLYAFLDENFKRCFREFCIPTSSTIEQQNSARIRQNTREHPSTANTVDRTNHQLENLEAETAPLP
